The target of experiment [1] is T1, GST-ERK2 fusion protein (glutathione S-transferase fused with human ERK2, from pGEX-4T-1) (human, UniProt P28482 1-360).
T1 construct: Expressed in E. coli BL21 and immobilised on Glutathione Sepharose beads for the pull-down; not shown: glutathione S-transferase (GST) encoded by the vector pGEX-4T-1
The experiment in a line: GST-ERK2 pull-down from HEK293 lysate, immunoblot. For orientation: Immunoblotting shows a protein as a band on a membrane.

The target in experiment [2] is T2, wild-type human EGFR (erbB1) (human, UniProt P00533 25-1210).
T2 construct: whole, on cells; precipitated from cell lysates with anti-EGFR antibody; also called HER1; wild-type EGFR
The experiment in a line: co-immunoprecipitation with anti-EGFR antibody from HEK293 lysate, immunoblot. How it is done: Before EGF treatment, Saos-2 cell or HEK293 cell was kept serum deficiency state for 24 hours.

T1 sequence (P28482 whole entry, the tested form may be a part): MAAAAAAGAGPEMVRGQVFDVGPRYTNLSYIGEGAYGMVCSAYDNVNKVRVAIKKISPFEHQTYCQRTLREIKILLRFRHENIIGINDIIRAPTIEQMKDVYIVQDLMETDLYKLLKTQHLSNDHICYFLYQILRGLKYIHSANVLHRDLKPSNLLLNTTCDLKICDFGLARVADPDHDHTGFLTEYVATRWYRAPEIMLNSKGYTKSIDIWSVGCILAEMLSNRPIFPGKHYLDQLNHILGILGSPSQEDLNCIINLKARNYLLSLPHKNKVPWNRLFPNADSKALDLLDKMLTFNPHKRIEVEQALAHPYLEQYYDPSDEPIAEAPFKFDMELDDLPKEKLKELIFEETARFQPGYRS

B1: 1-236 variant of human SNT-2, C-terminal FLAG-tag (other)
chain: MGSCCSCLNRDSVPDNHPTKFKVTNVDDEGVELGSGVMELTQSELVLHLHRREAVRWPYLCLRRYGYDSNLFSFESGRRCQTGQGIFAFKCSRAEEIFNLLQDLMQCNSINVMEEPVIITRNSHPAELDLPRAPQPPNALGYTVSSFSNGCPGEGPRFSAPRRLSTSSLRHPSLGEESTHALIAPDEQSHTYVNTPASEDDHRRGRHCLQPLPEGQAPFLPQARGPDQRDPQVFLQ
notes: C-terminal-cut-off variant expressed in HEK293 cells; not shown: C-terminal FLAG-tag
Consider B1, for which the binding result in experiment [1] is reported as “no binding”.

B2: 186-328 variant of human SNT-2 (PTB-domain-deleted), C-terminal FLAG-tag (other)
chain: DEQSHTYVNTPASEDDHRRGRHCLQPLPEGQAPFLPQARGPDQRDPQVFLQPGQVKFVLGPTPARRHMVKCQGLCPSLHDPPHHNNNNEAPSECPAQPKCTYENVTGGLWRGAGWRLSPEEPGWNGLAHRRAALLHYENLPPL
notes: not shown: C-terminal FLAG-tag
Regarding B2, the binding result in experiment [2] is “no binding”.

Source of the values: patent US20100062978A1 (UNIVERSITY OF TOKYO, published 2010).
